Experimental findings from PMC3240612, “Quantitative Multicolor Super-Resolution Microscopy Reveals Tetherin HIV-1 Interaction” (PLoS Pathogens, 2011) are described below.

Data set [1] has as its target T1, HA-tetherin (N-terminal HA-tagged tetherin), in virions released by PI-PLC (human), Q10589.
T1 chain: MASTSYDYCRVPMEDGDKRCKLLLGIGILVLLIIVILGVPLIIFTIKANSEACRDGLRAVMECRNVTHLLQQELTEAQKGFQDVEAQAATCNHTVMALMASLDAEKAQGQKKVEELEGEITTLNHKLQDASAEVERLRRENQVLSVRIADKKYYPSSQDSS
Particulars: remark: other sources report otherwise.

Data set [2] has as its target T2, tetherin-HA (HA tag inserted after the extracellular coiled-coil domain), in virions released by PI-PLC (human), Q10589.
T2 chain: T1 chain
Particulars: remark: other sources report otherwise.

Data set [3] deals with the molecule itself. Put plainly: non-reducing against reducing SDS-PAGE with Western blot; virions stripped from 293T cells by subtilisin A (0, 5 or 50 µg/ML), pelleted through sucrose, lysed in RIPA; anti-HA blot without βME and with βME.

The term stoichiometry N denotes the number of molecules, sites or subunits per partner or assembly.

B1: HA-tetherin (N-terminal HA-tagged tetherin), in virions released by PI-PLC, Q10589 1-161 (natural protein)
chain: T1 chain
modifications: here or on the partner: C-terminal GPI anchor, cut by PI-PLC; C-terminal GPI anchor, cut by PI-PLC
Turning to B1, in data set [1], the stoichiometry N was found to be 2.

B2: tetherin-HA (HA tag inserted after the extracellular coiled-coil domain), in virions released by PI-PLC, Q10589 1-161 (natural protein)
chain: T1 chain
modifications: here or on the partner: C-terminal GPI anchor, cut by PI-PLC; C-terminal GPI anchor, cut by PI-PLC
For B2, in data set [2], the stoichiometry N was 2.

B3: N-terminal fragment of HA-tetherin left inside virions after subtilisin A treatment (domain or fragment, human, UniProt Q10589 1-67, looked up)
chain: MASTSYDYCRVPMEDGDKRCKLLLGIGILVLLIIVILGVPLIIFTIKANSEACRDGLRAVMECRNVT
notes: tetherin (CD317, BST-2, HM1.24), human, Swiss-Prot Q10589; N-terminal fragment left after subtilisin A cleavage; Disulfide-linked dimer: ~26 kDa without βME, ~13 kDa with βME; also called dimeric N-termini; HA fragment of ~26 kDa (non-reducing), ~13 kDa (reducing); source: 293T, transfected with HIV-1 Δvpu and HA-tetherin; cells treated with subtilisin A; released virions pelleted through sucrose …
Regarding B3, the “stoichiometry N” value in data set [3] was 2.
